Results as given in the nanobody polyreactivity screen of Harvey et al. (2022).

Assay: yeast display, Sf9 membrane polyspecificity reagent, FACS + sequencing; frameworks hold sequencing errors
Summary of the method: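 Galactose-induced (36–48 hours) yeast carrying a synthetic nanobody display library were exposed to 10% biotinylated, detergent-solubilized Sf9 membrane reagent at 4 °C for 1 hour. FACS followed streptavidin microbead enrichment, using low and high (top ~1%) gates for expression (anti-HA) and reagent binding (streptavidin). Colony PCR, MiSeq 2 × 250 sequencing and CDR-length filtering followed. Labels for polyreactivity reflect the gate of origin.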

Row | Sequence | polyreactivity (PSR sort gate)
1 | QVQLVESGGGLVQAGGSLRLSCAASGSIFAFNAMGWYRQAPGKERELVAAMSGSGARTYYADSVKGRFTTSRDNAKNTVYLQLNSLKPEDTAVYYCARPYGYGYDYWGQGTQVTVSS | high polyreactivity
2 | QVQLVESGGGLVQAGGSLRLSCAASGGILRQNTMGWYRQAPGKERELVAAISSSGGRTYYADSVKGRFTISRDNAKNTVYLQMNSLKPEDTAVYYCAAEVRLKYRGWTGDYWGQGTQVTVSS | high polyreactivity
3 | QVQLVESGGGLVQAGGSLRLSCDASGITSHWYVMGWYRQAPGKERELVAAINSSGGRTSYADSVKGRFTISRDNAKNTVYLQMNSLKPEYTAVYYCAAGYTHSYFLGATGKVDYWGQGTQVTVSS | low polyreactivity
4 | QVQLVESGGGLVQAGGSLRLSCAASGSILSLNGMGWYRQAPGKERELVAVIRSGGSTYYADSVKGRFTISRDNAKNTVYLQMNSLKPEDTAVYYCNAQDYLTTVPDPEYDYWGQGTQVTVSS | low polyreactivity
5 | QVQLVESGGGLVQAGGSLRLTCAASGSTFLFYARGWYRQAPGKERELVAAIRGRGGSTYYADSVKGRFTISRDNAKNTVYLQMNSLKPEDTAVYYCAALSRFPVNRYSDLDLYYWGEGTQVTVSS | high polyreactivity
6 | QVQLVESGGGLVQAGGSLRLICAASGRIFPDYDMGWYRQAPGKERELVAAITQRGGSTYADSVKGRFTISRDNAKNTVYLQMNSLKPEDTAVYYCNARWQRPYDYWGQGTQVTVSS | low polyreactivity
7 | QVQLVESGGGLVQAGGSLRLSCAASGFTSSAYAMGWYRQEPGKESELVAVISRSGGRTYYADSVKGRFTISRDNAKNTVYLQMNSLKPEDTADYYCAAEYGVYNIHFPGYDYWGQGTQVTVSS | high polyreactivity
8 | QVQLVESGGGLVQAGGSLRLSCAASGRILRRNTMGWYRQAPGKERELVATITRGGGNTYADSVKGRFTISRDNAKNTVYLQMNSLKPEDTAVYYCARAYGSYDYWGQGTQVTVSS | high polyreactivity
9 | QVQLVESGGGLVQAGGSLRLSCAASGSIFRVYAMGWYRQAPGKEREFVAAITRRGTRTYYADSVKGRFTISRDNAKNTDYLQMNSLKPEDTAVYYCAAYFTDGLYEYWGQGTQVTVSS | low polyreactivity
10 | QVQLVESGGGLVQAGGSLRLSCAASGLIFKKYTMGWYRQAPGKERELVASISKSGGSTYYADSVKARFTISRDNAKNTVYLQMNSLKPEDTAVYYCAVGSTDRVSAQGSYFTYDYWGQVTQVTVSS | low polyreactivity
11 | QVQLVESGGGLVQAGGSLRLSCAATGRTSFRYTMGWYRQAPGKERELVAGISGSGGRTYYADSVKGRVTISRDNAKNTVYLQMNSLKPEDTAVYYCAAAWYTSHAKGKGGYWGQGTQVTVSS | high polyreactivity
12 | QVQLVESGGGIVQAGGSLRLSCAASGRNFIHYAMGGYRQAPGKERELVAAISWGGGRTYYADSEKGRFTISRDNAKNTVYLQMNSLKPEDTAVYYCAAAGRGSGYDYWGQGTQVTVSS | high polyreactivity
13 | QVQLVESGGGLVQAGCSLRLSCAASGSIFYGYAMGWYRQAPGKERELVAAISYSGDRTYYADSVKGRFTISRDNAKNSVYLQMNSLKPEDTAVYYCAAQRRYGDDYWGQGTQVTVSS | high polyreactivity
14 | QVQLVESGGGLVQAGGSLRLSCAASGRTFYYNAMGWYRQAPGKERELVAAISWSGGRTYYADSVKGRFTISRDNAKNTVYLQMNSLKPEDTAVYYCAATGFYSSHYHLDYWGQGTQVTVSS | high polyreactivity
15 | QVQLVESGGGLVQAGGSLRLSCAPSGSIFGSYAMGWYRQAPGKERELVAAIRRSSASTYYADSVKGRFTISRDNAKNTVYLQMNSLKPEDTAVYYCATQSYSYYGYRYRYAAYDYWGQGTQVTVSS | high polyreactivity
16 | QDQLVDSCGGLVQARGSLRLSCAASGSIFGDYAMGWYRQAPGKEWELVAAISDTDSTNDADSVKGRFTISRDNAKNTVYLQMNSLKREDTAVYSCNGDTWGYLLGYYYYKFAYCGQGTQVTVSS | low polyreactivity

Row | Sequence | polyreactivity (PSR sort gate)
17 | QVQLVESGGGLVQAGGSLRLSCAASGYTFDAYAMGWYRQAPGKERELVAAISGDSTNYADSVKGRFTISRDNAKNTVYLQMNSLKPEDTAVYYCAAAFWYDYWEKYDYWGQGTQVTVSS | low polyreactivity
18 | QVQLVESGGGLVQAGGSLRLSCAASGRTFYYYGMGWYRQAPGKERELVATISWSGGSTYYADSVKGRFTISRDNAKNTVYLQMNSLKPEDTAVYYSAADGQFLYDHIEVDYWGQATQVTVSS | low polyreactivity
19 | QVQLVESGGGLVQAGGSLRLSCAASGITFSQYAMGWYTQAPGKERELVASISEGDGTNYADSVKGRFTISRDNAKNTVYLQMNSLKPEDTAVYYCAAPRPYYWSRRYYRAFDYWGQGTQVTVSS | high polyreactivity
20 | QVQLVESGGGLVQAGGSLRLSCAASGSTFARYVMGWYRQAPGKERELVAAIRSTGGRTYYADSVKGRFTISRDNAKNNVYVQMNSLKPEDTAVYYCAAAFGQYSRKRFDYWGQGTQVTVSS | high polyreactivity
21 | QVQLEDSGGGLVQAGGSLRLSCAASGRTLYLYAMGWYRQAPGKERELVAAIDWRGTSTYYADSVKGRFTISRDNAKNTVYLEMNSLKPEDTAVYYCNARFRSYLRWYQRDYWGQGTKVTVSS | low polyreactivity
22 | QVHLVESGGGLVQAGGSLRLSSAASGRNFFNYAMGWYRQAPGKERELVAAISTGGSTTYADSVKGRFTISRDNAKNTVYLQMNSLKPEDTAVYYCARRGRRYRQYSRYYYWGQGTQVTVSS | high polyreactivity
23 | QVQLVESGGGLVQAGGSLRLSCAASGFNFRYYAMGWYRQAPGKERELVAAISWSGGTTYYADSVKGRFTISRDNAKNTVYLQMNSLKPEDTAVYYCAARVARFSVPYDYWGQGTQVTVSS | low polyreactivity
24 | QVQLVESGGGLVQGGGSLRLSCAASGITFGDYAMGWYRQAPGKERELVAGINWSGDGTYYADSVKGRFTISRDNAQNTDYLQLNSLKPEDTAVYNCAAETFYDYGGYDYWGQGTQVTVSS | low polyreactivity
25 | QVQLVESGGGLVQAGGSLRLSCAASGFTFGYNTMGWYRQAPGNERELGAAISWRGGSTFYADSVKGRFTISRDNAKNTVYLQMNSLKPEDTAVYYCNVLRLDQRYPSLRDDWGQGTQVTVSS | high polyreactivity
26 | QVQLVESGGGLVQAGGSLRLSCAASGRTFVTYAMGWYRQAPGKEREFVASISSDSGNTYYADSVKGRFTISRDNAKNTLYFQMNSLKPEDTAVYYCARRKVRYWSYPAAHYYWGQGTQVTVSS | low polyreactivity
27 | QVQLVESGGGLVQAGGSLRLSCAASGSNFAKNAMGWYRQAPGKEREMVAAITYSGGSTYYADSVKGRFTISRDNAKNTVYVQMNSLKPEDTAVYYCAADVWWSYYRYDYWGQGTQVTVSS | low polyreactivity
28 | QVQLVESGGGLVQAGGSLRLSCAASGFIFEWYAMGWYRQAPGKERELVAGIDSGSTYADSVKGRFTISRDNAKNTVYLQMNSLKPEDTAVYYCAKRSDAVIQRTYRYDYWGQGTQVTVSS | low polyreactivity
29 | QVQLVESGGGLVQAGGSLRLSCAASGSTFYRNAMGWYRQAPGKERELVAGITSGVTTYYADSVKGRFTISRDNAKNTVYLQMNSLKPEDSAVYYCAVYWRGRGAFTYGSWGQGTQVTVSS | high polyreactivity
30 | QVQLVESGGGLVQAGGSLRLSCAASGSIFGVYAMGWYRQAPGKERELVASITSGSSTNYADSVKGRFTISRDNAKNTVYLQMNSLKPEDTAVYYCAAGRTSRSRRYYRFFYAGDYWGQGTQVTVSS | low polyreactivity
31 | QVQQQESGGGLVQAGGSLRLSCAASGTIFQLTVMGRYRQAPGKERELVASIDYGGNTNYADSVKGRFTISRDNAKNTVYLQMNSLKPEDTAVYYCAASSDSWTTHPYWGQGTQGTVSS | low polyreactivity
